Where a chain is given by its changes, count along the chain named.
T1: mouse Ang2 (Accession # NP-031452) (R&D Systems) (mouse, UniProt O35608 19-496, limits assumed)
T1 construct: Bought protein; also called mAng2
T1 sequence (looked up): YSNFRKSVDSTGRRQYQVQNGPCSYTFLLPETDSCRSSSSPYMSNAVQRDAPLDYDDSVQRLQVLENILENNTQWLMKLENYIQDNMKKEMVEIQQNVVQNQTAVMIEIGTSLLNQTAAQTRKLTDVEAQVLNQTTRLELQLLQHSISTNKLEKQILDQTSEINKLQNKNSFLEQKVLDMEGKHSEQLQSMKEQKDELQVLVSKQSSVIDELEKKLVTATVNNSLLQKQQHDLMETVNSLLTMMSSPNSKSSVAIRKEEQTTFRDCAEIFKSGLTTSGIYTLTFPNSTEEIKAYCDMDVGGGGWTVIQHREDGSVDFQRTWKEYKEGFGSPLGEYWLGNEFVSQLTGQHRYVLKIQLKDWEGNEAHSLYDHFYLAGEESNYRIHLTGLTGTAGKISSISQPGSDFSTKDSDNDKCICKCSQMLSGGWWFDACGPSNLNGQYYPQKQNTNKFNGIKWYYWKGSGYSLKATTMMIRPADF

T2: recombinant hAng2 (C-His, R&D Systems) (human, UniProt O15123 19-496)
T2 construct: Bought protein captured on an anti-His chip; not shown: C-terminal His tag
T2 sequence: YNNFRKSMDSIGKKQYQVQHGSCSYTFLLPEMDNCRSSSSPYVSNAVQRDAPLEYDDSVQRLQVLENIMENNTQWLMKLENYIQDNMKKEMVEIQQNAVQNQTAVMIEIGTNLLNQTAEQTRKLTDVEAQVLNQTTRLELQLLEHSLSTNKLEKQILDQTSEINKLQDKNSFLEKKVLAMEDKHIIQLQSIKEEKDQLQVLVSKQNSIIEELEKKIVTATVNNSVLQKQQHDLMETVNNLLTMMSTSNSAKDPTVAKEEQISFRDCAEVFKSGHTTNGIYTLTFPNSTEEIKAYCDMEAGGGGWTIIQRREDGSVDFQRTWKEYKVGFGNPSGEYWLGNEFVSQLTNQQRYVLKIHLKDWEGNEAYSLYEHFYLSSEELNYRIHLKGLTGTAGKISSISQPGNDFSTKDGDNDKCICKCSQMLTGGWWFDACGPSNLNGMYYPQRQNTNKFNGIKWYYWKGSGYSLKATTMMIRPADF

B1: SAIT-ANG-2-AB-4-F11 (IgG form) (antibody, V domains shown)
VH: EVQLLESGGGLVQTGGSLRLSCAASGFTFSDYAMSWVRQAPGKGLEWVSSIYPDDGNTYYADSVKGRFTISRDNSKNTLYLQMNSLRAEDTAVYYCAKHPVRLNLHPMYYYYGMDVWGQGTLVTVSS
VL: QSVLTQPPSASGTPGQRVTISCTGSSSNIGNNAVSWYQQLPGTAPKLLIYSDSQRPSGVPDRFSGSKSGTSASLAISGLRSEDEADYYCATWDYSLSAYVFGGGTKLTVLG
notes: Intact human antibody with human IgG1 constant region
B2: SAIT-ANG-2-AB-8-A5 (IgG form) (antibody, V domains shown)
VH: EVQLLESGGGLVQPGGSLRLSCAASGFTFSDYYMSWVRQAPGKGLEWVSGIYPSGGSTYYADSVKGRFTISRDNSKNTLYLQMNSLRAEDTAVYYCARDPSTLTYAGFDYWGQGTLVTVSS
VL: B1 VL with T23S, A33Y, S35T, S51A, Q54H, A98G
notes: as for B1
B3: SAIT-ANG-2-AB-2-E6 (IgG form) (antibody, V domains shown)
VH: EVQLLESGGGLVQTGGSLRLSCAASGFTFSDYAMSWVRQAPGKGLEWVSAIYPDSGNKYYADSVKGRFTISRDNSKNTLYLQMNSLRAEDTAVYYCARHSSDPKVKSGYYDDGMDVWGQGTLVAVSS
VL: B1 VL with T23S, S35N, S51A, Q54N, A90G, T91S, A98G
notes: Intact human antibody: VH cloned into a vector with the constant region and Fc region of human IgG1, VL into pFUSE2-CLIg-hl2 (light chain constant region)
B4: SAIT-ANG-2-AB-7-C9 (IgG form) (antibody, V domains shown)
VH: EVQLLESGGGLVQPGGSLRLSCAASGFTFSNYAMSWVRQAPGKGLEWVSAISSGGGNIYYADSVKGRFTISRDNSKNTLYLQMNSLRAEDTAVYYCAKSGIQPSPPSMSSAYAMDVWGQGTLVTVSS
VL: B1 VL with T23S, A33D, S35Y, S51A, D52N, Q54H, A90G, A98G
notes: as for B1
B5: SAIT-ANG-2-AB-4-C11 (IgG form) (antibody, V domains shown)
VH: EVQLLESGGGLVQPGGSLRLSCAASGFTFSDYAMSWVRQAPGKGLEWVSSIYPDDGNTYYADSVKGRFTISRDNSKNTLYLQMNSLRAEDTAVYYCARHTSHHTSIDGYYYYGMDGWGQGTLVTVSS
VL: B1 VL with A33D, Q54K, A90G, T91S, A98G
notes: as for B1
B6: SAIT-ANG-2-AB-4-F5 (IgG form) (antibody, V domains shown)
VH: EVQLLESGGGLVQPGGSLRLSCAASGFTFSDYDMSWVRQAPGKGLEWVSSISHGDSNKYYADSVKGRFTISRDNSKNTLYLQMNSLRAEDTAVYYCAKSSGIQESPPTYYYYGMDVWGQGTLVTVSS
VL: B1 VL with T23S, N31S, S35N, S51A, Q54N, A90G, T91S, A98G
notes: as for B1
B7: SAIT-ANG-2-AB-3-D3 (IgG form) (antibody, V domains shown)
VH: EVQLLESGGGLVQPGGSLRLSCAASGFTFSDYDMSWVRQAPGKGLEWVSGISSDDGNTYYADSVKGRFTISRDNSKNTLYLQMNSLRAEDTAVYYCARPTIDKYTLRGYYSYGMDVWGQGTLVTVSS
VL: B1 VL with N31S, A33Y, S53N, Q54K, A90G, Y94D, S97N, A98G
notes: as for B1
B8: FLAG-Tagged hAng2 (ligand)
chain: DYKDDDDKYNNFRKSMDSIGKKQYQVQHGSCSYTFLLPEMDNCRSSSSPYVSNAVQRDAPLEYDDSVQRLQVLENIMENNTQWLMKLENYIQDNMKKEMVEIQQNAVQNQTAVMIEIGTNLLNQTAEQTRKLTDVEAQVLNQTTRLELQLLEHSLSTNKLEKQILDQTSEINKLQDKNSFLEKKVLAMEDKHIIQLQSIKEEKDQLQVLVSKQNSIIEELEKKIVTATVNNSVLQKQQHDLMETVNNLLTMMSTSNSAKDPTVAKEEQISFRDCAEVFKSGHTTNGIYTLTFPNSTEEIKAYCDMEAGGGGWTIIQRREDGSVDFQRTWKEYKVGFGNPSGEYWLGNEFVSQLTNQQRYVLKIHLKDWEGNEAYSLYEHFYLSSEELNYRIHLKGLTGTAGKISSISQPGNDFSTKDGDNDKCICKCSQMLTGGWWFDACGPSNLNGMYYPQRQNTNKFNGIKWYYWKGSGYSLKATTMMIRPADF
notes: also called FLAG-Ang2; non-mutated Ang2

Columns and labels:
[1] = target: T1, mouse Ang2 (Accession # NP-031452) (R&D …); assay: ELISA, antigen coated, IgG, anti-hFc-HRP; 50% binding concentration (Kd)
Description: To measure binding of the antibodies prepared above with each antigen, ELISA was performed. A 96-well MaxiSorp™ flat-bottom plate (Nunc) was coated with 5˜20 μg/ml of human Ang2 and mouse Ang2 (Accession # NP_{—}031452) (both, R&D Systems). After that, the plate was washed five times with 0.05% (v/v) Tween-20-containing PBS and then blocked with 1% (v/v) BSA-containing PBS at a room temperature for 2 hours. The anti-Ang2 antibodies in their IgG forms prepared above (0.001, 0.01, 0.1, 1, 10, 100, and 1000 nM) were added to each well of the plate which was then allowed to react at a room temperature for 2 hours.
(§1) Thereafter, the plate was washed five times with 0.05% Tween-20-containing PBS and then, an HRP-conjugated anti-human FC (Anti-hFc-HRP conjugated) antibody (SIGMA) diluted in 1% (v/v) BSA-containing PBS at 1:5,000 ratio (v/v) was added in the amount of 50 μl to each well to react at a room temperature for 1 hour, followed by washing five times with 0.1% (v/v) Tween-20-containing PBS. Finally, 100 μl of TMB substrate (cell signal) was added to each well of the plate to induce color development at a room temperature for 3 min and then, the reaction was ceased by the addition of 50 μl of 5N H₂SO₄ solution and OD450 values were measured on a plate reader (Molecular Devices).

[2] = target: T2, recombinant hAng2 (C-His, R&D Systems); assay: SPR, BIAcore T100, hAng2-His captured on anti-His CM5 chip, antibody flowed
Description: To measure accurate affinities toward an anti-Ang2 antigen, antigen affinities were measured by a SPR method using a BIAcore T100 (GE Healthcare). The SPR method uses refractive index change of light which passes a sensor chip according to the state of materials coated onto the sensor chip, and if an antigen or an antibody is flowed onto a chip coated with the antigen or antibody, it causes changes in refractive index due to their binding and Kd values are thus calculated from the measured values.
First, anti-His antibody was immobilized on a CM5 sensor chip (GE healthcare) up to 8,000 RU levels using a pH 5.0 acetate solution and an amine coupling kit (GE Healthcare). 6 μg/ml of a recombinant hAng2 (C-His, R&D Systems) protein was flowed onto the chip to be captured at 100 to 200 RU levels.

FLAG-Tagged hAng2 = target: B8; assay: competitive ELISA: hTie2-Fc coated, 400 ng/ml FLAG-hAng2 plus IgG, anti-FLAG-HRP
Description: To verify molecular interaction of the bound assemblies, a competitive ELISA was performed. A 96-well MaxiSorp™ flat-bottom plate (Nunc) was coated with […] of hTie2-Fc (R&D Systems), which is a protein with the Fc of human IgG1 bound thereto. After that, the plate was washed five times with 0.05% (v/v) Tween-20-containing PBS (Phosphate Buffer Saline) and then blocked with 1% (v/v) BSA (Bovine serum albumin; Sigma)-containing PBS at a room temperature for 2 hours.
as §1, with “an HRP-conjugated anti-FLAG antibody (SIGMA)” for “an HRP-conjugated anti-human FC (Anti-hFc-HRP conjugated) antibody (SIGMA)”, “amount of 100 μl to” for “amount of 50 μl to”, “for 3 min. Then, the reaction” for “for 3 min and then, the reaction”

[3] = target: T3, integrin alpha5beta1 (α5β1; R&D systems) (human, UniProt P08648 42-995; P05556 21-728, limits assumed); assay: ELISA: integrin alpha5beta1 coated at 5 ug/ml, FLAG-Ang2 at 10 ug/ml, detection with anti-FLAG-HRP, A450
T3 construct: Bought heterodimer
T3 sequence (P08648 42-995 limits assumed, chain 1 of 2): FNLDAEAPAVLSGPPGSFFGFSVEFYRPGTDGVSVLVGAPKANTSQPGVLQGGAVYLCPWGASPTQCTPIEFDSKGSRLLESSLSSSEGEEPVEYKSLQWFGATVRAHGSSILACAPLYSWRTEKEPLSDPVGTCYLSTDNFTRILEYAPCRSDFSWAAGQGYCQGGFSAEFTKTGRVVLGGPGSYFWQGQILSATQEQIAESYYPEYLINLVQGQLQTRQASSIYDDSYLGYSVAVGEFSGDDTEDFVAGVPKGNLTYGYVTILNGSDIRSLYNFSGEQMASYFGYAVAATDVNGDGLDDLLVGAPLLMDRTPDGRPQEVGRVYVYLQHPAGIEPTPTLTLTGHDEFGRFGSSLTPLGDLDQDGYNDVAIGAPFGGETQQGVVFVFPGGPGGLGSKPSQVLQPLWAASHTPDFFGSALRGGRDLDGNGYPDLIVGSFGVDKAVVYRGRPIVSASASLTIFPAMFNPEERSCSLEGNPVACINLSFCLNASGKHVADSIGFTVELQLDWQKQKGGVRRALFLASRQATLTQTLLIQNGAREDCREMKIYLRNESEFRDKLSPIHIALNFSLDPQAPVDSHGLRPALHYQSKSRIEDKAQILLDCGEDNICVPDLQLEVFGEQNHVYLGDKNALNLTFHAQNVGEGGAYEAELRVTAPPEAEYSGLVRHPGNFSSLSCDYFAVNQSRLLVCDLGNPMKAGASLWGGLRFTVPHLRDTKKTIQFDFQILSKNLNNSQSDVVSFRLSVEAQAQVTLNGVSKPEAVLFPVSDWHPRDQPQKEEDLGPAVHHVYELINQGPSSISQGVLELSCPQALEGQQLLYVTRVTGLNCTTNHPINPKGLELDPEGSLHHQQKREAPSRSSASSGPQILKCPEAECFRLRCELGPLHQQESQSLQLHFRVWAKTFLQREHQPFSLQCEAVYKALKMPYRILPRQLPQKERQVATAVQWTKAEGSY
T3 sequence (P05556 21-728 limits assumed, chain 2 of 2): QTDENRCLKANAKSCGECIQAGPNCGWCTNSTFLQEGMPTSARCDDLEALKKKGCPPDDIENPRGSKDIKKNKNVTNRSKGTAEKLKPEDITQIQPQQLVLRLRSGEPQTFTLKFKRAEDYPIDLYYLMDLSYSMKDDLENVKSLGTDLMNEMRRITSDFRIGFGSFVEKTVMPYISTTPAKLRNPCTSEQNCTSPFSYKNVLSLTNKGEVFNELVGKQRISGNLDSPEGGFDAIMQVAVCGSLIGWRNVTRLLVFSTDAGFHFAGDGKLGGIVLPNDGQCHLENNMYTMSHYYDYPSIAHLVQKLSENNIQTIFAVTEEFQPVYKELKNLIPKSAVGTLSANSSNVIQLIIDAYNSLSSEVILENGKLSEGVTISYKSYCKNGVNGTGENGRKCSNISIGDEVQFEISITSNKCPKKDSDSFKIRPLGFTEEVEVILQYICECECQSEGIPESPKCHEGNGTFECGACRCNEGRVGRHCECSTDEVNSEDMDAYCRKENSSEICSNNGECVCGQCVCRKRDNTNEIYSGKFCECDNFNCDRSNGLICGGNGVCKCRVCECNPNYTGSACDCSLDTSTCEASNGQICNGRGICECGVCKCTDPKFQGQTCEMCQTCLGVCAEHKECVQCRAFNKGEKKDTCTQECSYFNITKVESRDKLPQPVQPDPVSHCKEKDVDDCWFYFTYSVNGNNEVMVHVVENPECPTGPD
Description: After that, an anti-FLAG antibody (Sigma) conjugated with horseradish peroxidase (HRP) was added to react, and the plate was washed again five times with PBS-t. Bindings between Ang2 and the above the integrin were identified indirectly by measuring the amounts of the anti-FLAG antibody remaining in the ELISA plate via color development using TMB (3,3,5,5-tetramethylbenzidine) as a substrate of HRP. As positive controls, control antibody 1 (Regeneron Ang2 antibody) and control antibody 2 (Astra Zeneca Ang2 antibody) were used. Also, to show the background, a group coated with BSA instead of integrin was used.

Kd [1] [pM]	Kd [2] [pM]	koff [2] [s⁻¹]	kon [2] [M⁻¹ s⁻¹]	IC50 (FLAG-Tagged hAng2) [pM]	binding result [3]	Binder
360	440	0.000777	1.76e+06	370	–	B1
190	74	0.000327	4.4e+06	341	–	B2
350	650	0.000795	1.22e+06	605	–	B3
–	205	0.000366	1.78e+06	392	–	B4
280	588	0.00049	833000	421	–	B5
–	589	0.00112	1.9e+06	1520	–	B6
300	470	0.000546	1.16e+06	440	–	B7
–	–	–	–	–	binds	B8

From patent publication US20150152192A1 (SAMSUNG ELECTRONICS, published 2015)
